One assay addresses T1, PhoEF-2 N227S (Pyrococcus horikoshii, UniProt O59521 1-732, N227S).
T1 sequence (looked up): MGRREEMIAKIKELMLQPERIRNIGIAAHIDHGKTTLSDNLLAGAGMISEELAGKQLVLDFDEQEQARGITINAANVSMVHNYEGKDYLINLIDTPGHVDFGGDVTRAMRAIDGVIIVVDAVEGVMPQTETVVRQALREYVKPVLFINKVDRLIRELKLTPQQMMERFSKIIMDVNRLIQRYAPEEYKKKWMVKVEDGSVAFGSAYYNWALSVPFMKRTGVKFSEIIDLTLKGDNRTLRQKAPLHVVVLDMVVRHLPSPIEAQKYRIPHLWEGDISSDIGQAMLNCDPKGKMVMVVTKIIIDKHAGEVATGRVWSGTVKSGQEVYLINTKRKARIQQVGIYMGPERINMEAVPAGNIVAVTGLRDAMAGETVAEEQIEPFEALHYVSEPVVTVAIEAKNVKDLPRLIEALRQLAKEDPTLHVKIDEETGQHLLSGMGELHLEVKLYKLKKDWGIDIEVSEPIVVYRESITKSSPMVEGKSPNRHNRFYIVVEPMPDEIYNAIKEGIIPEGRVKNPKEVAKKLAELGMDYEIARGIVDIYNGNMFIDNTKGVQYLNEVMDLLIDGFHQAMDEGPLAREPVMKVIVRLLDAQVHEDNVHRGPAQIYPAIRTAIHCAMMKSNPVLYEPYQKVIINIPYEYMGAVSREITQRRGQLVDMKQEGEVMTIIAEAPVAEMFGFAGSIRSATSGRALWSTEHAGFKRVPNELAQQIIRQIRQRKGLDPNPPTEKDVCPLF
The assay is described as follows: native gel or EMSA.

The target of another assay is T2, PhoEF-2 K225S (Pyrococcus horikoshii, UniProt O59521 1-732, K225S).
T2 sequence (looked up): T1 sequence (looked up) with K222S, S224N
As to the kind of experiment: native gel or EMSA. (In general: In EMSA bound probe runs differently from free probe, usually more slowly.)

Changes are numbered by the printed parent chain.

B1: Pyrococcus horikoshii ribosomal stalk protein P1 (natural protein, UniProt O57705 1-108, looked up)
chain: MEYVYAALLLHSVGKEINEENLKAVLQAAGVEPEEARIKALVAALEGVNIDEVIEKAAMPVAVAAAPAAAPAEAGGEEKKEEEKKEEEEKEEEVSEEEALAGLSALFG
modifications: in the SPR only: biotin on amino groups via a PEG linker (EZ-Link NHS-PEG4-Biotin)
Take B1: the binding result with PhoEF-2 N227S and in the assay with PhoEF-2 K225S was “binds” in each case.

The record behind these values is PMC5887453 (Nucleic Acids Research, 2018).
